Measured values taken from patent US20160289321A1 (SHANGHAI HENGRUI PHARMACEUTICAL, published 2016).
Changes are numbered by the printed parent chain. Read-outs that look alike come from different tables or passages of the source.

T1: Rat IL-17A (rat, UniProt Q61453 18-150, limits assumed)
T1 sequence (looked up): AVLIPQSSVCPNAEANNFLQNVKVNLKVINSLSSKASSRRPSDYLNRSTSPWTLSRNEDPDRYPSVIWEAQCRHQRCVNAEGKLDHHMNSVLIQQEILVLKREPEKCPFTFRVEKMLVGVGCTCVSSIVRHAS

T2: Mouse IL-17A (Mu IL-17A) (mouse, UniProt Q62386 26-158)
T2 sequence (looked up): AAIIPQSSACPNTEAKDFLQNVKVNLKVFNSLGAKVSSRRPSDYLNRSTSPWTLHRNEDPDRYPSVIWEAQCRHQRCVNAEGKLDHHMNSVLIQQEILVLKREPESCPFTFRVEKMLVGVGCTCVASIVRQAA

B1: Hu049-18 (antibody, V domains shown)
VH: EVQLVQSGAEVKKPGASVKVSCKASGYTFTDYEVHWVRQAPGQGLEWMGVIDPGTGGVAYNQKFEGRVTMTADTSTSTAYMELRSLRSDDTAVYYCTRYSLFYGSSPYAMDYWGQGTLVTVSS
VL: EIVLTQSPDFQSVTPKEKVTITCSASSSVNYMHWFQQKPDQSPKLWIYRTSNLASGVPSRFSGSGSGTDYTLTINSLEAEDAATYYCQQRSSYPWTFGQGTKLEIKR
notes: Humanized mAb049
B2: Hu049-19 (antibody, V domains shown)
VH: B1 VH with M48I
VL: B1 VL
notes: Humanized mAb049
B3: Hu049-20 (antibody, V domains shown)
VH: B1 VH with M48I, V68A, M70L, T74D, S77N
VL: B1 VL
B4: Hu049-17 (antibody, V domains shown)
VH: B1 VH with A72T
VL: B1 VL
notes: Humanized mAb049
B5: IL17-mAb049 (antibody, V domains shown)
VH: HVQLQQSGADLVRPGASVTLSCKASGYIFTDYEVHWVKQTPVHGLEWIGVIDPGTGGVAYNQKFEGKATLTADDSSNTAYMELRSLTSEDSAVYYCTRYSLFYGSSPYAMDYWGQGTSVTVSS
VL: QIVLTQSPAIMSASPGEKVTITCSASSSVNYMHWFQQKPGTSPKLWIYRTSNLASGVPVRFSGSGSGTSYSLTISRMEAEDAATYYCQQRSSYPWTFGGGTNLEIK
notes: Murine monoclonal antibody from a hybridoma; also called murine IL-17A mouse antibody mAb049

Experiments:
Cyno IL-17A = Cyno IL-17A (cynomolgus, UniProt A0A2K5TTB0 24-155); test: cell-based or functional assay
[1] = target: T3, Recombinant human IL-17A/F (rhIL-17A/F), R&D System Cat No.5194-IL/CF (human, UniProt Q16552 20-155; Q96PD4 31-163, limits assumed); test: cell-based or functional assay
[2] = target: T4, Recombinant human IL-17A (rhIL-17A), R&D Systems Cat.No.317-ILB (human, UniProt Q16552 20-155, limits assumed); test: cell-based or functional assay
[3] = target: T5, Human IL-17A (hIL-17A), expressed in HEK293E (human, UniProt Q16552 24-155); test: SPR (Biacore X100), antibody captured on the chip, IL-17A as analyte
Procedure: (§1) 2. Binding kinetics Test: FC1 (Flow cell 1) was used as the reference channel, FC2 (Flow cell 2) was used as the sample channel, and murine or humanized control antibody or the antibody of the present invention was captured in the FC2 channel at 300RU, followed by the injection of different concentrations of IL-17 (including hIL-17A, MuIL-17, Rat IL-17). Cycle conditions were: injecting analytes into all FC channels at 30 μl/min for 3min, dissociation for 20 min, injecting 10 mM Glycine, pH 1.5, for 60 s (at rate of 10 μl/min) for surface regeneration. The difference between the signal with captured antibody and the signal without captured antibody was calculated using Biacore X100 evaluation software ver 2.0 (Biacore), and the running buffer was 10 mM Hepes, […], 3 mM EDTA, 0.05% Tween-20.
(§2) 2. Humanized IL-17 antibodies obtained from Example 2 were tested using the above method, and the results were as follows: […]

Rat IL-17A = target: T1, Rat IL-17A; test: SPR (Biacore X100), antibody captured on the chip, rat IL-17 as analyte
Procedure: as §1, §2

Mouse IL-17A (Mu IL-17A) = target: T2, Mouse IL-17A (Mu IL-17A); test: SPR (Biacore X100), antibody captured on the chip, mouse IL-17 as analyte
Procedure: as §1, §2

biotin-labeled IL-17A = target: T6, biotin-labeled IL-17A (human, UniProt Q16552 24-155, limits assumed, biotin-labeled (sites not given)); test: receptor blocking ELISA (RBA): antibody titrated against biotin-labeled IL-17A binding to captured IL-17RA-Fc
T6 construct: also called huIL-17
Procedure: 6. The positive controls, Lilly mAb and Novartis mAb, or antibodies of the present invention were diluted at a 1:5 ratio, with an initial concentration of 40 μg/ml. mIgG was diluted using the same method. 50 μl of diluted positive control, murine antibody of the present invention, or mIgG were added to each well, and, 50 μof 0.2nM biotin-labeled IL-17A were added to the wells containing diluted positive control or the antibody of the present invention, mixed gently and the plates were thermostatically incubated at 37° C. for 1 h.
7. The plates were washed with PBST three times; 8. 100 μl of HRP-labeled streptavidin complex (1:5000) were added to each well, and the plates were thermostatically incubated at 37° C. for 1 h;

[4] = target: T5, Human IL-17A (hIL-17A), expressed in …; test: SPR (Biacore X100), antibody captured on the chip, IL-17A as analyte; remark: listed apart in the source
Procedure: as §1
1. Hybridomas obtained in Example 1 were tested using the above method, and the results were as follows: […]

[5] = target: T3, Recombinant human IL-17A/F …; test: cell-based or functional assay; remark: listed apart in the source
[6] = target: T4, Recombinant human IL-17A (rhIL-17A), …; test: cell-based or functional assay; remark: listed apart in the source
[7] = target: T5, Human IL-17A (hIL-17A), expressed in …; test: indirect ELISA, hIL-17A or hIL-17A/F on streptavidin plates, OD450 against Lilly mAb and Novartis mAb
Procedure: 6. The positive controls, Lilly mAb and Novartis mAb, or murine mAbs antibodies of the present invention were titrated at a 1:5 dilution, with an initial concentration of 1 μg/ml. 100 μl of diluted positive control or murine antibody of the present invention were added to each well, and the plates were thermostatically incubated at 37° C. for 1 h. Each concentration was tested in duplicate;
10. The OD value at a wavelength of 450 nm was read on an ELISA microplate reader (Molecular Devices, Spectra Max).
11. The OD values of the murine mAb antibodies were compared to those of the positive controls. Monoclonal cell lines with a ratio greater than 1, including IL17-mAb049, were screened.

Sequence of Cyno IL-17A (A0A2K5TTB0 entry or part of it): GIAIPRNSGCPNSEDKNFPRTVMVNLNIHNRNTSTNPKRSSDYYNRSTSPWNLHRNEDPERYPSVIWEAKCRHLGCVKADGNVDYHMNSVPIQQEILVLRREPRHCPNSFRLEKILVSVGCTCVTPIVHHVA
T3 sequence (Q16552 20-155 limits assumed, chain 1 of 2): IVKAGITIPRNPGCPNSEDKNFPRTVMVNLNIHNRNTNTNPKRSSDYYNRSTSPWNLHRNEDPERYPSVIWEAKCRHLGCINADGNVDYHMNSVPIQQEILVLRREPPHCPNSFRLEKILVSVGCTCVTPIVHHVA
T3 sequence (Q96PD4 31-163 limits assumed, chain 2 of 2): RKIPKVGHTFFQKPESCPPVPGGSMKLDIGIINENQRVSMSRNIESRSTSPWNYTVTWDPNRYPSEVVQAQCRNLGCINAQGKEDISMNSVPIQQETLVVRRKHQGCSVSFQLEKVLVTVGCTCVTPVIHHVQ
T4 sequence (Q16552 20-155 limits assumed): as the sequence (Q16552 20-155 limits assumed, chain 1 of 2) above
T5 sequence (Q16552 24-155 limits assumed): as the sequence (A0A2K5TTB0 entry or part of it) above, with A3T, S8P, S34N, V77I, K78N, R104P counted along it
T6 sequence (Q16552 24-155 limits assumed): as the sequence (A0A2K5TTB0 entry or part of it) above, with A3T, S8P, S34N, V77I, K78N, R104P counted along it

Binder | Cyno IL-17A (bioassay IC50) (Cyno IL-17A) | huIL-17A/F Bioassay (IC50, nM) [1] | huIL-17 Bioassay (IC50, nM) [2] | Kd [3] | Kd (Rat IL-17A) | Kd (Mouse IL-17A (Mu IL-17A)) | IC50 (biotin-labeled IL-17A) | Kd [4] | huIL-17A/F Bioassay (IC50, nM) [5] | huIL-17 Bioassay (IC50, nM) [6] | ratio of OD value to that of the positive controls [7]
B1 | 0.033 nM | 0.684 nM | 0.04 nM | < 1 pM | 0.477 nM | 0.0681 nM | – | – | – | – | –
B2 | 0.039 nM | 0.411 nM | 0.066 nM | 2.68 pM | 0.06 nM | 0.0771 nM | – | – | – | – | –
B3 | 0.028 nM | 0.674 nM | 0.065 nM | – | – | – | – | – | – | – | –
B4 | 0.03 nM | 0.406 nM | 0.061 nM | < 1 pM | 1.06 nM | 0.137 nM | – | – | – | – | –
B5 | – | – | – | – | – | – | 0.07 nM | 0.0262 nM | 0.46 nM | 0.04 nM | 1
